Assay results reported in patent publication US20040054158A1.

Legend:
[1] = target: B7 molecules on WEHI 231 cells (B7-1 and B7-2); assay: flow cytometry, titered staining of WEHI 231 cells
[2] = target: B7 molecules on WEHI 231 cells (B7-1 and B7-2); assay: flow cytometry, titered staining of WEHI 231 cells; estimate from detectable concentrations

Sequence of mCTLA4-mIgG2am (P09793 36-161): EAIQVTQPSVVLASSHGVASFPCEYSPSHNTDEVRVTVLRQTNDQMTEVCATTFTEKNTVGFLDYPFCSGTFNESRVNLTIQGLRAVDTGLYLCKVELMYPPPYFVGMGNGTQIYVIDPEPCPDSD

concentration at which staining was clearly detectable [1]: 8 ng/mL
fold greater binding affinity than mICOS-mIgG2am binding to GL50 on WEHI cells [2]: > 100 fold
Substance: mCTLA4-mIgG2am (from UniProt P09793 36-161) (Fc fusion)
